Assay results taken from US20090291890A1 (published 2009).
Several values for one entry are separate records, joined by “and”; a condition that tells them apart may be missing. Equal entries are not always repeated.

T1: Mesyl-dFPR-ACC
T1 sequence (peptide, N-terminal mesyl; D-Phe at position 1 (dF); C-terminal ACC fluorophore): FPR


Assays:
[1] = target: Factor X (Homo sapiens (Human)) (UniProt P00742)
[2] = target: T1, Mesyl-dFPR-ACC

Row | kcat/KM (M^-1s^-1), TF-dependent assay [1] | kcat/KM, TF-independent assay [1] | Activity (µmol/sec/µmol), specific activity for mesyl-dFPR-ACC (µmol/sec/µmol) [2] | kcat/KM, TF-dependent assay [1] | Molecule
1 | 3.56e+07 M⁻¹ s⁻¹ | 3.8 M⁻¹ s⁻¹ | 1.95 |  | S52A/S60A-FVIIa (enzyme)
2 |  |  | 3.03 | 7.43e+07 M⁻¹ s⁻¹ | A122N/G124S/A175S/Q286R/M298Q-FVIIa (enzyme)
3 | 6.25e+07 M⁻¹ s⁻¹ | 4.8 M⁻¹ s⁻¹ | 2.7 |  | T128N/P129A/S222A-FVIIa (enzyme)
4 |  |  | 2.02 | 7.21e+07 M⁻¹ s⁻¹ | T128N/P129A/A175S/Q286R/M298Q-FVIIa (enzyme)
5 | 7.24e+07 M⁻¹ s⁻¹ | 2.9 M⁻¹ s⁻¹ | 0.44 |  | Gla swap FIX/S52A/S60A/S222A/Q286R-FVIIa (enzyme)
6 | 2.73e+08 M⁻¹ s⁻¹ and 2.91e+08 M⁻¹ s⁻¹ | 902 M⁻¹ s⁻¹ and 794 M⁻¹ s⁻¹ | 1.2 |  | {Gla swap FIX/K43I}/Q286R/M298Q-FVIIa (enzyme)
7 | 5.38e+07 M⁻¹ s⁻¹ | 41.3 M⁻¹ s⁻¹ | 1.63 |  | Gla swap FIX-FVIIa (enzyme)
8 | 1.98e+08 M⁻¹ s⁻¹ | 729 M⁻¹ s⁻¹ | 1.11 |  | {Gla swap FIX/Q44S}/Q286R/M298Q-FVIIa (enzyme)
9 |  |  | 21.8 | 6.89e+07 M⁻¹ s⁻¹ | T128N/P129A/A175S/S222A/H257A/Q286R/M298Q-FVIIa (enzyme)
10 | 1.33e+08 M⁻¹ s⁻¹ | 30.7 M⁻¹ s⁻¹ | 2.83 |  | T128N/P129A/Q286R/M298Q/H373F-FVIIa (enzyme)
11 | 1.55e+08 M⁻¹ s⁻¹ and 1.73e+08 M⁻¹ s⁻¹ |  | 1.66 |  | T128N/P129A/S222A/H257A/Q286R/M298Q-FVIIa (enzyme)
12 | 2.55e+08 M⁻¹ s⁻¹ and 2.3e+08 M⁻¹ s⁻¹ | 673 M⁻¹ s⁻¹ and 678 M⁻¹ s⁻¹ | 1.53 |  | Gla swap FIX/Q286R/M298Q-FVIIa (enzyme)
13 |  |  | 2.71 | 8.39e+07 M⁻¹ s⁻¹ | A122N/G124S/A175S/Q286R/M298Q/H373F-FVIIa (enzyme)
14 |  |  | 1.99 | 8.4e+07 M⁻¹ s⁻¹ | A122N/G124S/A175S/S222A/H257A/Q286R/M298Q-FVIIa (enzyme)
15 | 3.87e+07 M⁻¹ s⁻¹ | 3.4 M⁻¹ s⁻¹ | 2.24 |  | A122N/G124S-FVIIa (enzyme) ANAFLEELRPGSLERECKEEQCSFEEAREIFKDAERTKLFWISYSDGDQCASSPCQNGGSCKDQLQSYICFCLPAFEGRNCETHKDDQLICVNENGGCEQYCSDHTGTKRSCRCHEGYSLLNDSVSCTPTVEYPCGKIPILEKRNASKPQGRIVGGKVCPKGECPWQVLLLVNGAQLCGGTLINTIWVVSAAHCFDKIKNWRNLIAVLGEHDLSEHDGDEQSRRVAQVIIPSTYVPGTTNHDIALLRLHQPVVLTDHVVPLCLPERTFSERTLAFVRFSLVSGWGQLLDRGATALELMVLNVPRLMTQDCLQQSRKVGDSPNITEYMFCAGYSDGSKDSCKGDSGGPHATHYRGTWYLTGIVSWGQGCATVGHFGVYTRVSQYIEWLQKLMRSEPRPGVLLRAPFP
16 |  | 4.3 M⁻¹ s⁻¹ and 2.5 M⁻¹ s⁻¹ | 1.96 |  | Q286R/H257A-FVIIa (enzyme) ANAFLEELRPGSLERECKEEQCSFEEAREIFKDAERTKLFWISYSDGDQCASSPCQNGGSCKDQLQSYICFCLPAFEGRNCETHKDDQLICVNENGGCEQYCSDHTGTKRSCRCHEGYSLLADGVSCTPTVEYPCGKIPILEKRNASKPQGRIVGGKVCPKGECPWQVLLLVNGAQLCGGTLINTIWVVSAAHCFDKIKNWRNLIAVLGEHDLSEHDGDEQSRRVAQVIIPSTYVPGTTNHDIALLRLHQPVVLTDAVVPLCLPERTFSERTLAFVRFSLVSGWGRLLDRGATALELMVLNVPRLMTQDCLQQSRKVGDSPNITEYMFCAGYSDGSKDSCKGDSGGPHATHYRGTWYLTGIVSWGQGCATVGHFGVYTRVSQYIEWLQKLMRSEPRPGVLLRAPFP
17 | 1e+08 M⁻¹ s⁻¹ | 12.5 M⁻¹ s⁻¹ | 2.43 |  | S222A/H257A/Q286R/Q366V-FVIIa (enzyme) ANAFLEELRPGSLERECKEEQCSFEEAREIFKDAERTKLFWISYSDGDQCASSPCQNGGSCKDQLQSYICFCLPAFEGRNCETHKDDQLICVNENGGCEQYCSDHTGTKRSCRCHEGYSLLADGVSCTPTVEYPCGKIPILEKRNASKPQGRIVGGKVCPKGECPWQVLLLVNGAQLCGGTLINTIWVVSAAHCFDKIKNWRNLIAVLGEHDLSEHDGDEQARRVAQVIIPSTYVPGTTNHDIALLRLHQPVVLTDAVVPLCLPERTFSERTLAFVRFSLVSGWGRLLDRGATALELMVLNVPRLMTQDCLQQSRKVGDSPNITEYMFCAGYSDGSKDSCKGDSGGPHATHYRGTWYLTGIVSWGVGCATVGHFGVYTRVSQYIEWLQKLMRSEPRPGVLLRAPFP
18 | 5.48e+07 M⁻¹ s⁻¹ | 4.3 M⁻¹ s⁻¹ | 9.29 |  | Q366V-FVIIa (enzyme) ANAFLEELRPGSLERECKEEQCSFEEAREIFKDAERTKLFWISYSDGDQCASSPCQNGGSCKDQLQSYICFCLPAFEGRNCETHKDDQLICVNENGGCEQYCSDHTGTKRSCRCHEGYSLLADGVSCTPTVEYPCGKIPILEKRNASKPQGRIVGGKVCPKGECPWQVLLLVNGAQLCGGTLINTIWVVSAAHCFDKIKNWRNLIAVLGEHDLSEHDGDEQSRRVAQVIIPSTYVPGTTNHDIALLRLHQPVVLTDHVVPLCLPERTFSERTLAFVRFSLVSGWGQLLDRGATALELMVLNVPRLMTQDCLQQSRKVGDSPNITEYMFCAGYSDGSKDSCKGDSGGPHATHYRGTWYLTGIVSWGVGCATVGHFGVYTRVSQYIEWLQKLMRSEPRPGVLLRAPFP

Further lines, the molecule ahead of its results:

Row | Molecule | kcat/KM (M^-1s^-1), TF-dependent assay [1] | kcat/KM, TF-independent assay [1] | Activity (µmol/sec/µmol), specific activity for mesyl-dFPR-ACC (µmol/sec/µmol) [2] | kcat/KM, TF-dependent assay [1]
19 | S52A/S60A/Q286R/M298Q-FVIIa (enzyme) | 1.25e+08 M⁻¹ s⁻¹ | 217 M⁻¹ s⁻¹ | 1.08 | 
20 | Gla swap FIX/A122N/G124S/A175S/S222A/Q286R-FVIIa (enzyme) |  |  | 0.89 | 4.13e+07 M⁻¹ s⁻¹
21 | V158D/E296V/M298Q-FVIIa (enzyme) | 1.81e+08 M⁻¹ s⁻¹ and 1.65e+08 M⁻¹ s⁻¹ | 1220 M⁻¹ s⁻¹ and 984 M⁻¹ s⁻¹ | 3.28 | 
22 | T128N/P129A/Q286R/M298Q-FVIIa (enzyme) | 1.86e+08 M⁻¹ s⁻¹ and 1.5e+08 M⁻¹ s⁻¹ | 81.6 M⁻¹ s⁻¹ and 212 M⁻¹ s⁻¹ | 1.8 | 
23 | A122N/G124S/A175S/S222A-FVIIa (enzyme) | 2.08e+07 M⁻¹ s⁻¹ |  | 2.68 | 
24 | T128N/P129A/A175S/Q366V-FVIIa (enzyme) | 3.38e+07 M⁻¹ s⁻¹ | 3.4 M⁻¹ s⁻¹ | 3.4 | 
25 | T128N/P129A/Q286R/H373F-FVIIa (enzyme) | 6.91e+07 M⁻¹ s⁻¹ | 6.6 M⁻¹ s⁻¹ | 2.31 | 
26 | Gla swap FIX/T239V/Q286R/M298Q-FVIIa (enzyme) | 2.53e+08 M⁻¹ s⁻¹ and 1.79e+08 M⁻¹ s⁻¹ |  | 1.13 | 
27 | Q286R-FVIIa (enzyme) | 8.06e+07 M⁻¹ s⁻¹ | 10.3 M⁻¹ s⁻¹ | 1.24 | 
28 | H373F-FVIIa (enzyme) ANAFLEELRPGSLERECKEEQCSFEEAREIFKDAERTKLFWISYSDGDQCASSPCQNGGSCKDQLQSYICFCLPAFEGRNCETHKDDQLICVNENGGCEQYCSDHTGTKRSCRCHEGYSLLADGVSCTPTVEYPCGKIPILEKRNASKPQGRIVGGKVCPKGECPWQVLLLVNGAQLCGGTLINTIWVVSAAHCFDKIKNWRNLIAVLGEHDLSEHDGDEQSRRVAQVIIPSTYVPGTTNHDIALLRLHQPVVLTDHVVPLCLPERTFSERTLAFVRFSLVSGWGQLLDRGATALELMVLNVPRLMTQDCLQQSRKVGDSPNITEYMFCAGYSDGSKDSCKGDSGGPHATHYRGTWYLTGIVSWGQGCATVGFFGVYTRVSQYIEWLQKLMRSEPRPGVLLRAPFP | 5.58e+07 M⁻¹ s⁻¹ |  | 1.17 | 
29 | H257S-FVIIa (enzyme) ANAFLEELRPGSLERECKEEQCSFEEAREIFKDAERTKLFWISYSDGDQCASSPCQNGGSCKDQLQSYICFCLPAFEGRNCETHKDDQLICVNENGGCEQYCSDHTGTKRSCRCHEGYSLLADGVSCTPTVEYPCGKIPILEKRNASKPQGRIVGGKVCPKGECPWQVLLLVNGAQLCGGTLINTIWVVSAAHCFDKIKNWRNLIAVLGEHDLSEHDGDEQSRRVAQVIIPSTYVPGTTNHDIALLRLHQPVVLTDSVVPLCLPERTFSERTLAFVRFSLVSGWGQLLDRGATALELMVLNVPRLMTQDCLQQSRKVGDSPNITEYMFCAGYSDGSKDSCKGDSGGPHATHYRGTWYLTGIVSWGQGCATVGHFGVYTRVSQYIEWLQKLMRSEPRPGVLLRAPFP | 1.18e+08 M⁻¹ s⁻¹ | 3.1 M⁻¹ s⁻¹ | 2.64 | 
30 | H257S/Q286R/Q366V-FVIIa (enzyme) ANAFLEELRPGSLERECKEEQCSFEEAREIFKDAERTKLFWISYSDGDQCASSPCQNGGSCKDQLQSYICFCLPAFEGRNCETHKDDQLICVNENGGCEQYCSDHTGTKRSCRCHEGYSLLADGVSCTPTVEYPCGKIPILEKRNASKPQGRIVGGKVCPKGECPWQVLLLVNGAQLCGGTLINTIWVVSAAHCFDKIKNWRNLIAVLGEHDLSEHDGDEQSRRVAQVIIPSTYVPGTTNHDIALLRLHQPVVLTDSVVPLCLPERTFSERTLAFVRFSLVSGWGRLLDRGATALELMVLNVPRLMTQDCLQQSRKVGDSPNITEYMFCAGYSDGSKDSCKGDSGGPHATHYRGTWYLTGIVSWGVGCATVGHFGVYTRVSQYIEWLQKLMRSEPRPGVLLRAPFP | 7.1e+07 M⁻¹ s⁻¹ | 7.7 M⁻¹ s⁻¹ | 2 | 
